Experimental data as given in US20220251236A1 (Boehringer Ingelheim, published 2022).

Tests used:
[1] = molecular target: T1, FLAG-tagged human DLL4 full length (human, UniProt Q9NR61 1-685); test: flow cytometry on HEK293 cells expressing human DLL4 (HEK293-huDLL4), PE anti-human secondary, control: secondary antibody only
T1 construct: also called human DLL4 on HEK293 cells
Description: Bound molecules were detected with PE-conjugated anti-human secondary antibody (Sigma-Aldrich, #P8047). As negative control, cells were incubated with secondary antibody only. The samples were measured by flow-cytometry.

[2] = molecular target: T2, Human CD3 E+G HuFc-6xHis (human); test: SPR (ProteOn XPR36), HuCD3E_HuCD3G-Fc amine-coupled, bispecific as analyte, Example 4B
T2 construct: also called hu CD3εγ-Fc
Outline: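 SPR kinetics with the bispecific constructs flowed as analyte over a directly amine-coupled (pH 4.5 acetate) human CD3εγ-Fc surface. Association runs 600 s and dissociation 1800 s, at 30 μl/min in PBS-T-EDTA.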

[3] = molecular target: T3, EGF5+6; test: flow cytometry on HEK293 cells expressing the DLL3 subdomain construct, PE anti-human secondary, control: secondary antibody only
T3 construct: also called Hu DLL3 EGF5+6 on HEK293 cells
T3 membrane-anchored DLL3 subdomain construct: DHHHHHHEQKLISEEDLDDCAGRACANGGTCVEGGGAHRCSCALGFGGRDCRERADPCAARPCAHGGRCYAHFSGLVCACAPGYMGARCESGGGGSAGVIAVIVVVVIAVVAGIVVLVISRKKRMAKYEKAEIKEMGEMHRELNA
Outline: (§1)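 Binders tested on HEK293 cells displaying the DLL3 subdomain construct; bound molecules detected by flow cytometry using PE-conjugated anti-human secondary antibody. Negative control: cells with secondary antibody only.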

[4] = molecular target: T4, EGF3+4; test: as above
T4 construct: also called Hu DLL3 EGF3+4 on HEK293 cells
T4 membrane-anchored DLL3 subdomain construct: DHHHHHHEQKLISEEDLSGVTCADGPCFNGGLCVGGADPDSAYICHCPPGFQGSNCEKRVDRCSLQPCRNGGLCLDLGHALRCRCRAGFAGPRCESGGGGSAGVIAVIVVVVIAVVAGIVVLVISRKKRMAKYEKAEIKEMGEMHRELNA
Outline: as §1

[5] = molecular target: T5, EGF1+2; test: as above
T5 construct: also called Hu DLL3 EGF1+2 on HEK293 cells
T5 membrane-anchored DLL3 subdomain construct: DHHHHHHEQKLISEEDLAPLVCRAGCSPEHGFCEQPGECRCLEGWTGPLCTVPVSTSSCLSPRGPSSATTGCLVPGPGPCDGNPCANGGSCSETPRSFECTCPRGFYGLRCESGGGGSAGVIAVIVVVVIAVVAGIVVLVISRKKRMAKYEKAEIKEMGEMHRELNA
Outline: as §1

[6] = molecular target: T6, EGF2+3; test: as above
T6 construct: also called Hu DLL3 EGF2+3 on HEK293 cells
T6 membrane-anchored DLL3 subdomain construct: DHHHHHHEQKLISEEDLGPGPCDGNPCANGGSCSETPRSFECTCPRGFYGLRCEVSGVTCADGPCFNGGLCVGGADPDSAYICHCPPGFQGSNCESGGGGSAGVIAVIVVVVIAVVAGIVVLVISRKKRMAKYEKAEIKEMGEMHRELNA
Outline: as §1

[7] = molecular target: T7, EGF4+5; test: as above
T7 construct: also called Hu DLL3 EGF4+5 on HEK293 cells
T7 membrane-anchored DLL3 subdomain construct: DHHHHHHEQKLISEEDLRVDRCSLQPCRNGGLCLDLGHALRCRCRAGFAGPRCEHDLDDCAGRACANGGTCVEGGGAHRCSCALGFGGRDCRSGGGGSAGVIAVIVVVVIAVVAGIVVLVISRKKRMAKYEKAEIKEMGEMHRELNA
Outline: as §1

[8] = molecular target: T8, EGF6+MEMBRANE PROXIMAL PEPTIDE; test: as above
T8 construct: also called Hu DLL3 EGF6+membrane proximal peptide on HEK293 cells
T8 membrane-anchored DLL3 subdomain construct: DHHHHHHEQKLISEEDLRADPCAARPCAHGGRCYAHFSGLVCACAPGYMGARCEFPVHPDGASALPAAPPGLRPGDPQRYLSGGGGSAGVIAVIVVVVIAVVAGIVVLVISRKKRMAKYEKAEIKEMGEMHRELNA
Outline: as §1

T2 sequence (chain, as listed by the source limits assumed): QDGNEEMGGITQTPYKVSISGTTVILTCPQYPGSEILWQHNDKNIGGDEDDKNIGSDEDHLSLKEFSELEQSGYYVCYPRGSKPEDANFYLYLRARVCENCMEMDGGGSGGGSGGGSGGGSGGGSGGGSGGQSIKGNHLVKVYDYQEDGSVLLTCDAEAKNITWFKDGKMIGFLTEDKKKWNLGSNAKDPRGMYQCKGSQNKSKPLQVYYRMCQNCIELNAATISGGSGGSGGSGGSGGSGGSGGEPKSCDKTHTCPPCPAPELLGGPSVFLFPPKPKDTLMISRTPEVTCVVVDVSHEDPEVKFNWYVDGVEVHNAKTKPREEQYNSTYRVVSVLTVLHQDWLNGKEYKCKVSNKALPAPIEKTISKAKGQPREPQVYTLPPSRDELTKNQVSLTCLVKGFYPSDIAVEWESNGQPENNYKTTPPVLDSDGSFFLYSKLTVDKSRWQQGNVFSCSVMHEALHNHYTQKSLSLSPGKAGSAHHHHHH
T1 sequence (Q9NR61 other isoform, or with tags, fused parts or gaps limits assumed): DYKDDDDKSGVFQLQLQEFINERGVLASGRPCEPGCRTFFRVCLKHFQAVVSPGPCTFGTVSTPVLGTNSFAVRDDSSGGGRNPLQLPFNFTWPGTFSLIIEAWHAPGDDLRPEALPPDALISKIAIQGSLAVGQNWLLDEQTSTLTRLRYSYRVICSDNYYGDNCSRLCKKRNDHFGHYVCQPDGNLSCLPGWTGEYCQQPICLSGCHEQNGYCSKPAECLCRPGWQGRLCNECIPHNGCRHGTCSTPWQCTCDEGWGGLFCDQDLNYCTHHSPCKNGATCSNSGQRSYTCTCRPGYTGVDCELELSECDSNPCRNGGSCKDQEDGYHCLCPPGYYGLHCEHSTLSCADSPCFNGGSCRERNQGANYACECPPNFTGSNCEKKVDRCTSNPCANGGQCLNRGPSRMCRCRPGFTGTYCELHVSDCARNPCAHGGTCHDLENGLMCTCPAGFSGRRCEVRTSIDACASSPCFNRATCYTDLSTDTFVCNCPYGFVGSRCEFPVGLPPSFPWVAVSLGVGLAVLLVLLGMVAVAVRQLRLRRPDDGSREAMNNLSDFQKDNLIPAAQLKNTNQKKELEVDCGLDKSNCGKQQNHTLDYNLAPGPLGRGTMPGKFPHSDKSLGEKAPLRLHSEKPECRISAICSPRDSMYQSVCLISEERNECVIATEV

B1: DLL3#6/CD3#1 (bispecific antibody, human IgG1, kappa, lambda, L234A L235A)
chain 1: DIQLTQSPSFLSTSVGDRVTITCRASQDISNYFAWYQQKPGKAPKLLIYAASTLQSGVPSRFSGGGSGTEFTLTISSLQPEDFATYYCQQLNSYPYTFGQGTKLEIKRTVAAPSVFIFPPSDEQLKSGTASVVCLLNNFYPREAKVQWKVDNALQSGNSQESVTEQDSKDSTYSLSSTLTLSKADYEKHKVYACEVTHQGLSSPVTKSFNRGECGGGGSEGKSSGSGSESKSTEGKSSGSGSESKSTGGGGSQVQLQESGPGLVKPSETLSLTCTVSGGSISSYFWSWIRQPAGKGLEWIGRIYTSGSTNYNPSLNSRLTMSVDTSKNQFSLKLSSVTAADTAVYYCARRGDWGGFDIWGQGTVVTVSSASTKGPSVFPLAPSSKSTSGGTAALGCLVKDYFPEPVTVSWNSGALTSGVHTFPAVLQSSGLYSLSSVVTVPSSSLGTQTYICNVNHKPSNTKVDKRVEPKSCDKTHTCPPCPAPEAAGGPSVFLFPPKPKDTLMISRTPEVTCVVVDVSHEDPEVKFNWYVDGVEVHNAKTKPREEQYNSTYRVVSVLTVLHQDWLNGKEYKCKVSNKALPAPIEKTISKAKGQPREPQVYTLPPSREEMTKNQVSLWCLVKGFYPSDIAVEWESNGQPENNYKTTPPVLDSDGSFFLYSKLTVDKSRWQQGNVFSCSVMHEALHNHYTQKSLSLSPG
chain 2: EAVVTQEPSLTVSPGGTVTLTCRSSTGAVTTSNYANWVQEKPGQLPRGLIGGTNKRAPWVPARFSGSLLGGKAALTLSGAQPEDEAEYFCALWYSNLWVFGGGTKLTVLGQPKAAPSVTLFPPSSEELQANKATLVCLISDFYPGAVKVAWKADGSPVNTGVETTTPSKQSNNKYAASSYLSLTPEQWKSHRSYSCQVTHEGSTVEKTVAPAECSGGGGSEGKSSGSGSESKSTEGKSSGSGSESKSTGGGGSEVQLVESGGGLVQPGGSLKLSCAASGFTFNTYAMNWVRQAPGKGLEWVARIRSKYNNYATYYADSVKDRFTISRDDSKNTAYLQMNNLKTEDTAVYYCVRHGNFGNSYVSWFAYWGQGTLVTVSAASTKGPSVFPLAPSSKSTSGGTAALGCLVKDYFPEPVTVSWNSGALTSGVHTFPAVLQSSGLYSLSSVVTVPSSSLGTQTYICNVNHKPSNTKVDKRVEPKSCDKTHTCPPCPAPEAAGGPSVFLFPPKPKDTLMISRTPEVTCVVVDVSHEDPEVKFNWYVDGVEVHNAKTKPREEQYNSTYRVVSVLTVLHQDWLNGKEYKCKVSNKALPAPIEKTISKAKGQPREPQVYTLPPSREEMTKNQVSLSCAVKGFYPSDIAVEWESNGQPENNYKTTPPVLDSDGSFFLVSKLTVDKSRWQQGNVFSCSVMHEALHNRFTQKSLSLSPG
notes: Heterodimer of one DLL3 chain and one CD3 chain (scFab-Fc, knob-in-hole)
[1]
  binding result: no binding (tested: 1.6 nM)
[2]
  Kd: 2 nM
[3]
  binding result: no binding (tested: 1.6 nM)
[4]
  binding result: no binding (tested: 1.6 nM)
[5]
  binding result: no binding (tested: 1.6 nM)
[6]
  binding result: no binding (tested: 1.6 nM)
[7]
  binding result: no binding (tested: 1.6 nM)
[8]
  binding result: no binding (tested: 1.6 nM)
